This test deals with T1, Flag-TNFR1 (UniProt P19438 30-455, limits assumed).
T1 construct: whole, on cells; The receptor sat on the membrane of transfected HEK293 cells; not shown: Flag tag
T1 sequence (looked up): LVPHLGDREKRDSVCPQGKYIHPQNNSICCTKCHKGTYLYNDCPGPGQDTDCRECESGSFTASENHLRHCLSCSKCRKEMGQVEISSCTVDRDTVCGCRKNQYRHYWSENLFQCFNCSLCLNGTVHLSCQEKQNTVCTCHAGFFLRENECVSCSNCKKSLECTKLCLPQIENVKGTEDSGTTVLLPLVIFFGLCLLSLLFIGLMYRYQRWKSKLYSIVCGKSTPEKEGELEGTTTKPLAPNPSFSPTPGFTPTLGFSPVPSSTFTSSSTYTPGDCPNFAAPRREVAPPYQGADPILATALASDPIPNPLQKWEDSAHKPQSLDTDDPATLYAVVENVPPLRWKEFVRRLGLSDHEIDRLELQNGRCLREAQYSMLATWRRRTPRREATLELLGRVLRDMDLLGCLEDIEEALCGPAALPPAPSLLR
The test can be described thus: co-immunoprecipitation of truncated mutants co-transfected with TNFR1. How it is done:
The cells were washed with RIPA buffer, and protein-A/G-agarose beads (Santa Cruz) were added in an amount of 20 μL/tube to perform immunoprecipitation. According to the molecular weights of the truncated mutants, […] 15% SDS-PAGE gel electrophoresis was carried out, followed by Western blotting with an Myc antibody (FIG. 9).

B1: truncated mutant consisting of an IGFBP5 N-terminal domain (other)
chain: LGSFVHCEPCDEKALSMCPPSPLGCELVKEPGCGCCMTCALAEGQSCGVYTERCAQGLRCLPRQDEEKPLHALLHGRGVC
notes: not shown: Myc tag from vector pSecTaq2/Hygro A
Take B1: the binding result is “no binding”.

B2: truncated mutant consisting of an IGFBP5 C-terminal domain (other)
chain: QGPCRRHMEASLQELKASPRMVPRAVYLPNCDRKGFYKRKQCKPSRGRKRGICWCVDKYGMKLPGMEYVDGDFQCHTFDSSNVE
notes: as for B1
B2: the binding result is “no binding”.

The record behind these values is patent US20120046217A1 (SUNGKYUNKWAN UNIVERSITY FOUNDATION FOR CORPORATE …, published 2012).
